Data on 3 substances can be found in paper doi:10.1101/2022.10.08.511438.

The target in experiment [1] is dihydrolipoyl succinyltransferase (E2o), core of the oxoglutarate dehydrogenase complex, Chaetomium thermophilum (C. thermophilum (endogenous in mycelium lysate)). Kind of experiment: label-free MS quantitation.
Experiment [2] has the same target. The experiment can be described thus: cryo-EM structure.

By stoichiometry N is commonly meant the number of molecules, sites or subunits per partner or assembly.

In experiment [1], “oxoglutarate dehydrogenase (E1o) of the oxoglutarate dehydrogenase complex (OGDHc), Chaetomium thermophilum (enzyme)” returned a stoichiometry N (E1o dimers around the 24-mer E2o core) of 9 and a stoichiometry N (E1o dimers relative to 24 E2o subunits) of less than 10. For “dihydrolipoyl dehydrogenase (E3), Chaetomium thermophilum (enzyme)”, the stoichiometry N (E3 dimers relative to 24 E2o subunits) in experiment [1] came out at 4.

Regarding “dihydrolipoyl succinyltransferase (E2o), core of the oxoglutarate dehydrogenase complex, Chaetomium thermophilum (enzyme)”, in experiment [2], the stoichiometry N worked out at 24 subunits.
